This is an account of results in patent US12723248 (Amgen, dated 2026).

This assay deals with T1, human asialoglycoprotein receptor 1 (ASGR1) (human, UniProt P07306 1-291).
T1 construct: whole, on cells; The cells were fixed in formaldehyde before staining; also called hASGR1; HL-1
T1 sequence (looked up): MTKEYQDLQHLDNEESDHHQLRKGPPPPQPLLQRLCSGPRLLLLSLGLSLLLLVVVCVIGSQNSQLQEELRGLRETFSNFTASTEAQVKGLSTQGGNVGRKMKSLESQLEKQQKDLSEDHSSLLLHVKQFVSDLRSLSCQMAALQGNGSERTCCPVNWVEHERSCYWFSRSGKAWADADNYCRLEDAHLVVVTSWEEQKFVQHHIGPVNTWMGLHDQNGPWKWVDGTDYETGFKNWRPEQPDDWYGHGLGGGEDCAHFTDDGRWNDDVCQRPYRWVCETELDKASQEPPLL
Put plainly: immunofluorescence on formaldehyde-fixed Hep3B or HepG2 cells, Alexa488 anti-human IgG secondary, high-content imaging. The protocol:
The siRNA molecules in Tier 1 and Tier 2 screening sets were synthesized without chemical modifications. Each siRNA molecule was comprised of a 21 nucleotide sense strand and 21 nucleotide antisense strand that hybridized to form a duplex region of 19 base pairs with a 2 nucleotide overhang at the 3' end of each strand. The efficacy of each of the siRNA molecules in reducing ASGR1 expression was assessed using a 384-well format in vitro immunoassay, which quantifies levels of ASGR1 protein on the cell surface of Hep3B or HepG2 cells.
Transfection complexes of the siRNA molecules and RNAiMax transfection reagent (Life Technologies) in EMEM media (ATCC 30-2003) were prepared in 384-well plates in accordance with manufacturer's recommendations. Human hepatocellular carcinoma Hep3B (ATCC HB-8064) or HepG2 (ATCC HB-8065) cells in EMEM media supplemented with 10% fetal bovine serum and 1% antibiotic/antimycotic were added to each well. Cells were incubated for 4 days at 37° C. and 5% CO_2. […] Data was analyzed using Columbus image analysis software and GeneData Screener software to quantify several measures of ASGR1 protein levels, cell count, and cell morphology on a per cell and per well basis.

B1: anti-ASGR1 primary antibody (Amgen clone 7E11) (antibody, human IgG1, kappa, N297G, V domains shown)
VH: QVQLVESGGGVVQPGRSLRLSCAASGFTFSSFGMHWVRQAPGKGLEWVAIIWHDGSNKYYADSVKGRFTISRDNSKNTLYLQMSSLRAEDTAVYYCARDLSMGGMDVWGQGTTVTVSS
VL: DIQMTQSPSSLSASVGDRVTIACRASQNIISYLNWYQQKPGKAPKFLIYTASSLQSGVPSRFSGSGSGTDFTLTISSLQPEDFAIYYCQQTYSTPLTFGGGTKVEIKR
notes: It was used as a staining reagent and detected with an Alexa488-conjugated anti-human IgG secondary antibody
B1: the binding result was “binds”.
